Test results published in patent US20100303790A1, “USE OF BILIVERDIN REDUCTASE (BVR) AND BVR PEPTIDE FRAGMENTS TO TREAT CORONARY DISORDERS” (UNIVERSITY OF ROCHESTER, priority 2009, published 2010).

Legend:
BVR [1] = target: T1, BVR (Homo sapiens, UniProt P53004, A154S/E160D/G155D); details: Lerner-Marmarosh et al. 2007; cited from earlier work
T1 sequence (P53004 3-296 A154S/G155D/E160D): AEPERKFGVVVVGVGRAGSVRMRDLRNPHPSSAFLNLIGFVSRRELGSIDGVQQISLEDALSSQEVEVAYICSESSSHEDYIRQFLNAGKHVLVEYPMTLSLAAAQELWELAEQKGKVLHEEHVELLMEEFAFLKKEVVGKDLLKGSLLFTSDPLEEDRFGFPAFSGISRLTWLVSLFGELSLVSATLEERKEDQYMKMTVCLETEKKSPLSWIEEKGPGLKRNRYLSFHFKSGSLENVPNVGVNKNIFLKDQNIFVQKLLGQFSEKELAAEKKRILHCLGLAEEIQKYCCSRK

BVR [2] = target: T2, BVR (Rattus norvegicus, UniProt P46844); experiment: Langendorff perfused heart: BVR activity (biliverdin to bilirubin, pH 6.7); assay type: in vivo
T2 construct: Cardiomyocytes and heart tissue samples were lysed in buffer containing 100 mM sodium phosphate pH 7.4; from tissue; host or cells: isolated Langendorff-perfused rat heart, lysate
T2 sequence (P46844 3-295): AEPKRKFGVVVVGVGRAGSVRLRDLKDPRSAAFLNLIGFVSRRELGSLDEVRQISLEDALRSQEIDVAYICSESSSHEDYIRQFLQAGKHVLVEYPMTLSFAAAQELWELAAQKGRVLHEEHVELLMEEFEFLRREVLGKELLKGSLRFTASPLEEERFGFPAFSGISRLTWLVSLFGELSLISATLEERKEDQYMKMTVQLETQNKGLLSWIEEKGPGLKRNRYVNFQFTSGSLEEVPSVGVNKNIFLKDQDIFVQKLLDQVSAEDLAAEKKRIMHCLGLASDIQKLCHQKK
Text: In Vivo Experimental Langendorff Model: Male Sprague-Dawley rats weighing 250-300 g (Charles River, Boston, Mass.) were used in this study; the protocol is based on that described by Tompkins et al., “Mitochondrial Dysfunction in Cardiac Ischemia-Reperfusion Injury: ROS From Complex I, Without Inhibition,” Biochim Biophys Acta 1762:223-231 (2006), which is hereby incorporated by reference in its entirety, with minor modification. The rats were fed a standard rat chow and had water ad libitum. All experiments were approved by the University of Rochester Institutional Animal Care and Use Committee. Rats were given two subcutaneous injections of isoproterenol (ISO) (0.01 mg/kg), 6 hours apart, then anesthetized with freshly prepared Avertin (2,2,2-tribromoethanol, […] injected intraperitoneally), and treated with heparin (5000 U/kg), i.p., to protect the heart against microthrombi. The aorta was cannulated in situ with a 22-gauge needle filled with warm Krebs-Henseleit (KH) buffer. The heart was rapidly transferred (<10 s.) to a perfusion apparatus, and retrograde (Langendorff) perfusion begun with 37° C. […] Hemodynamics and heart rate were recorded by inserting a water-filled balloon connected to a transducer (Radnoti LLC, model no. 159904B) into the left ventricle. […]
Measurement of BVR Activity: Cardiomyocytes and heart tissue samples were lysed in buffer containing 100 mM sodium phosphate pH 7.4, 1% Nonidet-P-40, 10% glycerol, 0.2 mM dithiothoeitol, 10 mM NaF, protease inhibitor mixture (10 μg/ml aprotinin, 10 μg/ml leupeptin, 10 μg/ml pepstatin, and 0.1 mM phenylmethylsulfonyl fluoride). BVR activity was measured at pH 6.7 as described previously (Huang et al., “Detection of 10 Variants of Biliverdin Reductase in Rat Liver by Two-Dimensional Gel Electrophoresis,”J Biol Chem 264:7844-7849 (1989), which is hereby incorporated by reference in its entirety). The rate of conversion of biliverdin to bilirubin was determined as the increase in absorbance at 450 nm at 25° C. Specific activity is expressed as nanomoles of bilirubin/min/mg of protein. […]

Substance	effect on BVR activity (BVR [1])	BVR activity (BVR [2]; peptide 25 μM, whether ISO was present or not)	BVR activity (BVR [2]; peptide 25 μM alone)	BVR reductase activity (BVR [2]; peptide 25 μM and 0.1 μM ISO)
KKRILHC (biliverdin reductase peptide) [KKRILHC^281]	potent inhibitor	blocked the activity of BVR	–	–
KYCCSRK (biliverdin reductase peptide) [KYCCSRK^296]	activator	–	increased BVR activity	significant activation
